For assay [1], the target named is T1, co-purified GST-eIF4G1/eIF4E complex (yeast, UniProt P39935 1-952; P07260 1-213).
T1 sequence (looked up) 1: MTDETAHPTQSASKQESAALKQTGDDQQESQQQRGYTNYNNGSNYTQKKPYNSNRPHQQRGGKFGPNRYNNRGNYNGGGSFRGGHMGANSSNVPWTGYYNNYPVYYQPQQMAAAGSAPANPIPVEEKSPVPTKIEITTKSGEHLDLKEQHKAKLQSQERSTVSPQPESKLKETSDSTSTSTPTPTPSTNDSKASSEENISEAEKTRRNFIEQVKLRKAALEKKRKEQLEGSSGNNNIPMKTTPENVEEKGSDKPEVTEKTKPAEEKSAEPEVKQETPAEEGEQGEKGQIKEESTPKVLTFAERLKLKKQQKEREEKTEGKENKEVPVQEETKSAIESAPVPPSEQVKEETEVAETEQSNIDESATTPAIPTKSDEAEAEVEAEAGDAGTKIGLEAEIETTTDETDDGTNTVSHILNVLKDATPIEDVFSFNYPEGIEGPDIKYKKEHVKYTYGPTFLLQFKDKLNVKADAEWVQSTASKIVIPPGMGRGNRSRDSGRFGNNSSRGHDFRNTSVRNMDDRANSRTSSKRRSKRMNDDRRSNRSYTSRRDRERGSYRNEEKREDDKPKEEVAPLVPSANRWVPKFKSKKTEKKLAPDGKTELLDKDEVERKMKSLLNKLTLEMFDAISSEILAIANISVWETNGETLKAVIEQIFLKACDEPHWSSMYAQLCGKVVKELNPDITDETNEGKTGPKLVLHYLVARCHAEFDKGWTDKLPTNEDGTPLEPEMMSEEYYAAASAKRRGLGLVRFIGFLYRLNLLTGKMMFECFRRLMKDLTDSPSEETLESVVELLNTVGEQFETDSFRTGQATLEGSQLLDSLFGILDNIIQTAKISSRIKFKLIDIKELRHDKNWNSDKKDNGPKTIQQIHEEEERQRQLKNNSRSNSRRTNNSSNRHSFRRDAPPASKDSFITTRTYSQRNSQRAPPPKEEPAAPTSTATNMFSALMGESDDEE
T1 sequence (looked up) 2: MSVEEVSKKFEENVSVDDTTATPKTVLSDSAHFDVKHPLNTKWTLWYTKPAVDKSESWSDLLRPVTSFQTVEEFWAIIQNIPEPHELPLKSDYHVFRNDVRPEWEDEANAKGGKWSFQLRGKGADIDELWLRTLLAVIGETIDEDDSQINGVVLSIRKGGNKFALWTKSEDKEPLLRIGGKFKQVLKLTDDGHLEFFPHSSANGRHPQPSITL
As to the kind of experiment: pull-down.

The target in assay [2] is recombinant wild type Ded1 (yeast, UniProt P06634 1-604). As to the kind of experiment: pull-down.

B1: rded1Δ21-27 (enzyme, yeast, UniProt P06634 1-604, looked up)
chain: MAELSEQVQNLSINDNNENGGKPRSARNNSSNYNNNNGGYNGGRGGGSFFSNNRRGGYGNGGFFGGNNGGSRSNGRSGGRWIDGKHVPAPRNEKAEIAIFGVPEDPNFQSSGINFDNYDDIPVDASGKDVPEPITEFTSPPLDGLLLENIKLARFTKPTPVQKYSVPIVANGRDLMACAQTGSGKTGGFLFPVLSESFKTGPSPQPESQGSFYQRKAYPTAVIMAPTRELATQIFDEAKKFTYRSWVKACVVYGGSPIGNQLREIERGCDLLVATPGRLNDLLERGKISLANVKYLVLDEADRMLDMGFEPQIRHIVEDCDMTPVGERQTLMFSATFPADIQHLARDFLSDYIFLSVGRVGSTSENITQKVLYVENQDKKSALLDLLSASTDGLTLIFVETKRMADQLTDFLIMQNFRATAIHGDRTQSERERALAAFRSGAATLLVATAVAARGLDIPNVTHVINYDLPSDVDDYVHRIGRTGRAGNTGLATAFFNSENSNIVKGLHEILTEANQEVPSFLKDAMMSAPGSRSNSRRGGFGRNNNRDYRKAGGASAGGWGSSRSRDNSFRGGSGWGSDSKSSGWGNSGGSNNSSWW
Turning to B1, the binding result in assay [1] is given as “binds”.

B2: GST-eIF4G1 fragment eIF4G 883-952 (domain or fragment, yeast, UniProt P39935 883-952, looked up)
chain: SNSRRTNNSSNRHSFRRDAPPASKDSFITTRTYSQRNSQRAPPPKEEPAAPTSTATNMFSALMGESDDEE
Take B2: the binding result in assay [2] is “binds”.

Source of the values: PMC3268518 (Molecular Cell, 2011).
